B1: BCL2L13 (parent)
chain: QSLDQEILLKVKTEIEEELKSLDK
B2: RAD51 (parent)
chain: RFLRMLLRLADEFGVAVVITNQVV

Variants of: B1
Experiment: protein stability index of a GFP-peptide fusion (GPS, HEK-293T) (PSI 1-6); higher = more stable
Conditions: c terminus: a fixed tail appended
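Also: lentivirally expressed fusions sorted by FACS into six bins by GFP to DsRed ratio, PSI derived from sequencing read proportions per bin multiplied by bin number.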

Protein stability index of substitutions, site by site:
L9: V 5.26; N 5.48; R 5.05; C 5; S 5.21; T 5.25; G 5.13; M 4.49; K 4.81; Q 5.37; P 4.87; Y 4.45; W 4.4; I 4.29; F 4.66; H 5.39; E 5.45
I15: T 5.76; S 5.72; F 5.36; D 5.89; K 5.41; Q 5.46; C 5.12; G 5.61; E 5.8; W 4.45; A 5.33; V 5.08; P 5.92; L 4.85; H 5.29; M 5.08; N 5.58; Y 4.88
D4: N 4.52; V 2.66; C 4; M 2.83; L 2.79; S 4.42; F 2.34; T 3.5; K 4.55; I 2.28; R 3.63; W 2; A 4.27; E 4.58; Q 4.66; H 4.69
K12: Y 4.27; T 4.73; D 4.08; V 4.1; I 2.6; G 5.65; F 3.15; Q 4.62; E 5.6; C 4.43; P 5.38; L 2.13; R 4.77; A 4.94; H 4.71; S 4.61; N 5.97; M 1.81
T13: P 5.34; M 3.65; R 4.96; A 3.97; C 3.28; I 2.44; D 4.44; V 3.58; Q 3.67; Y 4.14; G 4.06; H 4.71; W 3.48
I7: W 2.94; Y 5.46; F 4.64; G 5.33; D 5.68; E 5.63; M 5.3; T 4.27; R 5.61; K 5.51; A 5.66; H 5.07; V 5.62; P 5.83; S 5.69; N 5.33; L 5.32; Q 5.12

Variants of: B2
Experiment: as above
Conditions: c terminus: a fixed tail appended

Protein stability index, by site and new letter:
Q22: V 2.24; N 1.85; L 1.68; M 1.65; A 1.52; H 1.9; I 1.43; R 2.08; T 1.44; S 2.47; C 2.3; K 1.39; E 3.17; P 1.99; G 2.92; D 1.65; Y 2.77; F 1.29
V24: F 2.68; L 2.03; E 1.41; N 1.86; S 1.44; M 2.4; I 3.73; Q 2.83; G 2.11; T 1.83; A 1.89; K 1.45; W 1.25; P 2.06; C 2.11; Y 1.6; D 2.48; H 3.01; R 2.55
V23: K 2.73; Q 1.98; T 1.51; P 2.23; A 2.66; R 1.09; Y 1.5; E 1.9; W 1.98; I 3.7; S 2.56; D 2.64; H 2.07; N 1.9; M 2.37; L 2.38; F 3.02; C 2.69
N21: K 2.3; W 1.76; S 1.19; P 1.7; I 1.43; L 1.97; V 2.43; T 2.02; Y 2.19; M 4.31; Q 1.9; R 1.68

— the supplement of paper PMC10567573
